Measured values taken from publication PMC6349032.

Biological target: GD-FXaS195A (Gla-domainless factor Xa, catalytically inactive) (UniProt P00742;P00742 85-179;235-488, S419A)
Assay: X-ray crystallography

GD-FXaS195A (Gla-domainless factor Xa, catalytically inactive), sequence (P00742 85-179, chain 1 of 2): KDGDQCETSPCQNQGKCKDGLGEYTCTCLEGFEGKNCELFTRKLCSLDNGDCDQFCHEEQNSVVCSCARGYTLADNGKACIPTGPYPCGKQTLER
GD-FXaS195A (Gla-domainless factor Xa, catalytically inactive), sequence (P00742 235-488 S419A, chain 2 of 2): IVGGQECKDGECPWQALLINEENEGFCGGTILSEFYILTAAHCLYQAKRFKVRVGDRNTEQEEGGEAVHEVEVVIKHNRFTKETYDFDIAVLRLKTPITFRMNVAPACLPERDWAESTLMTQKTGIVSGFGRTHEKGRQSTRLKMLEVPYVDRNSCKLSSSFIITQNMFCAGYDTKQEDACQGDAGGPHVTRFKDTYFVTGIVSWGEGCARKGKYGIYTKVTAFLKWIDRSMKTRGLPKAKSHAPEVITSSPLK

B1: 11F7t (structured_RNA)
RNA: GAGAGCCCCAGCGAGAUAAUACUUGGCCCCGCUCUU
modifications: all C are 2'-fluoro-C and all U are 2'-fluoro-U; purines A/G as ribonucleotides
binding result: binds
